B1: Costal-2 (Cos2), C-terminally tagged with Renilla luciferase II (natural protein, Drosophila, UniProt O16844 1-1201, looked up)
chain: MEIPIQVAVRIFPHRELKDLLRSFGPTEPKKDAQAVDEGADSKDSEAQVPAAEKDNPSISETDPNGNAEQDSAADSKTIPDANGNDSGQKDYPDSAYCVQAIPISASALGLPSALPGGDPMDSIAAGLIQVGPHTVPVTHALPSSSSQEQVYHQTVFPLITLFLEGFDASVVTYGQRGQGKSYTLYGNVQDPTLTDSTEGVVQLCVRDIFSHISLHPERTYAINVGFVEICGGDVCDLLGMGNIHCTNVDAVFHWLQVGLSARQSLPAHTLFTLTLEQQWVSKEGLLQHRLSTASFSDLCGTERCGDQPPGRPLDAGLCMLEQVISTLTDPGLMYGVNGNIPYGQTTLTTLLKDSFGGRAQTLVILCVSPLEEHLPETLGNLQFAFKVQCVRNFVIMNTYSDDNTMIVQPAEPVPESNSSAGPLSQAGPGDNFGLQFAASQWSKLVTNAEGLFSKLIDSKLITEVEKEQIEEWLFLKQECEECLSSTEAMRQQKQLVPILEAEEPEDVNSEAANSESPNSDNENDTDNESHRPDLDDKIESLMEEFRDKTDALILEKHAEYLSKHPKAVMQSQDREIEAQPPEENGDDRKVSIGSRRRSVQPGASLSTAELAMLNRVASQQPPPPIDPESVVDPLESSSGEGIRQAALAAAAATAPIEQLQKKLRKLVAEIEGKQRQLREIEETIQVKQNIIAELVKNSDTRSHAKQRFHKKRAKLEAECDKAKKQLGKALVQGRDQSEIERWTTIIGHLERRLEDLSSMKHIAGESGQKVKKLQQSVGESRKQADDLQKKLRKECKLRCQMEAELAKLRESRETGKELVKAQGSPEQQGRQLKAVQARITHLNHILREKSDNLEEQPGPEQQETLRHEIRNLRGTRDLLLEERCHLDRKLKRDKVLTQKEERKLLECDEAIEAIDAAIEFKNEMITGHRSIDTSDRIQREKGEQMLMARLNRLSTEEMRTLLYKYFTKVIDLRDSSRKLELQLVQLERERDAWEWKERVLSNAVRQARLEGERNAVLLQRQHEMKLTLMLRHMAEETSASSASYGERALAPACVAPPVQASSDFDYDHFYKGGGNPSKALIKAPKPMPTGSALDKYKDKEQRSGRNIFAKFHVLTRYASAAAAGSSGSTAEESTALIESTTTATATTTSTTTTGAVGKVKDKALVSFRPEQLKRLMPAPTATKVTRQKNKIIIQDASRRN
notes: Costal-2 (Cos2), kinesin-like protein, Drosophila; also called Cos2-Luc; Cos2-RLucII; source: S2-R+ cells, transfected (pRmHa3.puro, induced with CuSO4), in intact cells; not shown: RLucII, C-terminal, kept

Columns and labels:
[1] = target: Smo^SD.c12D (Smo^SD with Gprk2 phosphorylation clusters 1 and 2 changed to Asp), C-terminally tagged with GFP10 or RLucII (UniProt P91682); assay: BRET; details: S2 cells, Luc + GFP10 tagged pair, read off a plot
[2] = target: T1, Smo^core (Drosophila Smoothened amino acids 1-663), C-terminally tagged with GFP10 (Drosophila, UniProt P91682 32-663); assay: FRET or BRET; BRET in intact S2-R+ cells between C-terminally GFP10-tagged truncated Smo variants (300 ng) and Cos2-RLucII (75 ng), myc-Fu (75 ng) co-transfected; cells treated with control (beta-gal), gprk2 or smo 3'UTR dsRNA, without or with myc-Gprk2; net BRET; details: partners not purified
T1 construct: signal peptide in the construct; Smoothened (Smo), Drosophila melanogaster, amino acids 1-663, truncated just after the third Gprk2 phosphorylation cluster; also called Smo^core-GFP10; source: S2-R+ cells, transfected (pRmHa3.puro, induced with CuSO4), in intact cells; not shown: GFP10, C-terminal, kept
T1 sequence (looked up): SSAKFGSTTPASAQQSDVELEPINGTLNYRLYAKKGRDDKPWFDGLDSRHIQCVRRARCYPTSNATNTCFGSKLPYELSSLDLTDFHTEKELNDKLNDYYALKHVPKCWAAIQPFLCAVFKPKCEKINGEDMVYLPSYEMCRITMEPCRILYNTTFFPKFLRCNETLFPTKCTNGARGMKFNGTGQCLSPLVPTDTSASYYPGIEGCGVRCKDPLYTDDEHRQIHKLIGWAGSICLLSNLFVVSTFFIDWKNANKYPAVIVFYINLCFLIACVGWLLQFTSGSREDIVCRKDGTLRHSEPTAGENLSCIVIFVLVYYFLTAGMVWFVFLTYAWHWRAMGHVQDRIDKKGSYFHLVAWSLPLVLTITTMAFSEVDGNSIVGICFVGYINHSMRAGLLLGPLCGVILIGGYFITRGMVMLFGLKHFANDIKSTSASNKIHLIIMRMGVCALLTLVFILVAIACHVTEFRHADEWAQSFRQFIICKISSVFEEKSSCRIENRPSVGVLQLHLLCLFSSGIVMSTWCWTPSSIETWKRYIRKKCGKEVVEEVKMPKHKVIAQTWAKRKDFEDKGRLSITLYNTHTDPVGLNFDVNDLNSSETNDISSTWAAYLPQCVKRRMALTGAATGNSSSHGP

Row | Molecule | response ([1]; dsRNA targeting β-gal (control), parent: est. 100) | response ([1]; gprk2 dsRNA, parent: est. 67) | fold increase of net BRET on Gprk2 overexpression against control cells [2] [fold]
1 | Smo^SD (PKA- and CKI-phosphomimetic form of Drosophila Smoothened), C-terminally tagged with GFP10 or Renilla luciferase II (from UniProt P91682) S604D; T606D; T610D; T612D; S626D; S627D; T629D; S633D; S634D; T635D | 170 | 160 | –
2 | B1 | – | – | > 2.2

— PMC4091690, “A Broadly Conserved G-Protein-Coupled Receptor Kinase Phosphorylation Mechanism Controls Drosophila Smoothened Activity” (PLoS Genetics, 2014)
